Laboratory results published in US20100081611A1.

Molecular target: pre-assembled ICN-CSL complex (UniProt P46531)
Assay: surface plasmon resonance, peptide immobilized, pre-assembled ICN-CSL complex

pre-assembled ICN-CSL complex, sequence (P46531 1760-2126, chain 1 of 2): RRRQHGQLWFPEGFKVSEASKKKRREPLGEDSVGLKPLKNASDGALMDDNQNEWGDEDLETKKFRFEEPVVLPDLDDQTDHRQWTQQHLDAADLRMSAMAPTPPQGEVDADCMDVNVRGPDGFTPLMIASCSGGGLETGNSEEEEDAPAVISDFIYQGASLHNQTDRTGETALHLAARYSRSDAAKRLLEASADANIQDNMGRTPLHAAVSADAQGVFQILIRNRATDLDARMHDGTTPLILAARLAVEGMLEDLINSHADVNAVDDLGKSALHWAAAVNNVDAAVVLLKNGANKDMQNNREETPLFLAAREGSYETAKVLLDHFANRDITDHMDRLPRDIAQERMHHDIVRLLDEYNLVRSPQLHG
pre-assembled ICN-CSL complex, sequence (Q06330 23-449, chain 2 of 2, further chain): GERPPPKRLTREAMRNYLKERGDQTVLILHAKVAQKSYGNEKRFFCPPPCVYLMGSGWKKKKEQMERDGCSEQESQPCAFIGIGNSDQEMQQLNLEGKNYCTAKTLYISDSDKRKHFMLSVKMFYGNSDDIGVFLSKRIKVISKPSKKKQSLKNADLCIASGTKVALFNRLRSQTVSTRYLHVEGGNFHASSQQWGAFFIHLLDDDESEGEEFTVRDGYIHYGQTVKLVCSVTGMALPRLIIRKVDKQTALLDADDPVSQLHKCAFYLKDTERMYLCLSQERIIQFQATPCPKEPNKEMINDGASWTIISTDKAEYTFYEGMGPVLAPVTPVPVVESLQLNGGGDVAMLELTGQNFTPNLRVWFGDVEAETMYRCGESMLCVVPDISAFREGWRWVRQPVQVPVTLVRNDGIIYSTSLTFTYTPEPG

Kd: 98 nM
Substance: SAHN1 (REM-G1), internally cross-linked (stapled) MAML-1 polypeptide
